Results from patent publication US20250333523A1 (Alector, published 2025).

Key:
[1] = target: T1, Avi/His-HuIL18BPa (recombinant human IL-18BP isoform A with Avi and poly-His tags) (human, biotinylated with BirA on the Avi tag in some assays); test: ELISA, coated IL-18BP
T1 construct: also called human IL-18BP-Avi-His
T1 chain: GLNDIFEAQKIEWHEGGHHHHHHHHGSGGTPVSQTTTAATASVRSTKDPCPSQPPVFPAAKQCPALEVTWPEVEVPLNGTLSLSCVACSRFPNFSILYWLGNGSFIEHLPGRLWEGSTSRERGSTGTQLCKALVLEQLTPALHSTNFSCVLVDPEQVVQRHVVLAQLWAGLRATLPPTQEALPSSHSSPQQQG

[2] = target: T2, Avi/HisMsIL18BPd (recombinant mouse IL-18BP with Avi and poly-His tags) (mouse, biotinylated with BirA on the Avi tag in some assays); test: ELISA, coated IL-18BP
T2 construct: also called murine IL-18BP; IL-18BP-Avi-His (mouse)
T2 chain: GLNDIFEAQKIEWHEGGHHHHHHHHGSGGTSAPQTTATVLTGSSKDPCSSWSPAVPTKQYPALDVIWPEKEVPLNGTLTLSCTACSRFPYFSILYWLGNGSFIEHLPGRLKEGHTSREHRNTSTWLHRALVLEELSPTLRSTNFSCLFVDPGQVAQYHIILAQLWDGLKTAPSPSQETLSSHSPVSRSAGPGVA

[3] = target: T3, His/Avi-CynoIL18BP (recombinant cynomolgus IL-18BP with His and Avi tags) (cynomolgus monkey); test: ELISA, coated IL-18BP
T3 construct: also called cynomolgus IL-18BP-Avi-His
T3 chain: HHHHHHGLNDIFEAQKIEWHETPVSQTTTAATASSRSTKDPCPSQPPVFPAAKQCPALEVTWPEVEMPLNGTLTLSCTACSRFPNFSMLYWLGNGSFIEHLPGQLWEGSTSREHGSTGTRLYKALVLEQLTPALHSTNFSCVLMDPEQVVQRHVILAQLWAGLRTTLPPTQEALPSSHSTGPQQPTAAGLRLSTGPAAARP

[4] = target: T1, Avi/His-HuIL18BPa (recombinant human …); test: cell-based or functional assay
[5] = target: T2, Avi/HisMsIL18BPd (recombinant mouse …); test: cell-based or functional assay
[6] = target: T1, Avi/His-HuIL18BPa (recombinant human …); test: SPR Carterra LSA, IgG immobilized
[7] = target: T3, His/Avi-CynoIL18BP (recombinant …); test: SPR Carterra LSA, IgG immobilized
[8] = target: T1, Avi/His-HuIL18BPa (recombinant human …); test: blocking ELISA, competitor human IL-18
[9] = target: T4, mouse IL-18BPd-human IgG Fc (R&D Systems, Cat. #122-BP-100) (mouse; human, UniProt Q9Z0M9 29-193); test: blocking ELISA, competitor mouse IL-18
T4 construct: Bought; also called mouse IL-18BPd-Fc Chimera
T4 sequence (looked up): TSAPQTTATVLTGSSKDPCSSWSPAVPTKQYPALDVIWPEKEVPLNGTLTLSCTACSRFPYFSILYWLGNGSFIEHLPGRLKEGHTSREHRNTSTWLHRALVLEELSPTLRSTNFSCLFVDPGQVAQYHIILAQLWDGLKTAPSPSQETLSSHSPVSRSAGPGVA

[10] = target: T3, His/Avi-CynoIL18BP (recombinant …); test: blocking ELISA, competitor rhesus IL-18
[11] = target: T3, His/Avi-CynoIL18BP (recombinant …); test: cell-based or functional assay

B1: anti-IL18BP antibody BP-03 (antibody, human IgG1, V domains shown)
VH: EVQLQQSGPELVKPGASVKIPCKASGYTFTDYNMDWVKQSHGKSLEWIGNINTDNGGTVYNQKFKGKATLTVDQSSSTAYMELRSLTSEDTAVYYCARSDTTVVASRYYAMDYWGQGTSVTVSS
VL: DIVLTQSPASLAMSLGKRATISCRASESVSIIGTNLIHWYQQKPGQPPKLLIYHASNLETGVPARFSGSGSRTDFTLTIDPVEEDDVAIYYCLQSRKIPPTFGGGTKLEIK
ELISA binding ratio (fold-change over background) [1]: 41.9 fold over background
ELISA binding ratio (fold-change over background) [2]: 41.6 fold over background
ELISA binding ratio (fold-change over background) [3]: 36.5 fold over background
EC50 of IFNγ release, human PBMC [4]: 1.14 nM
Fold change of IFNγ at 10 µg/ml vs baseline, human PBMC [4]: 11.3 fold
EC50 of IFNγ release, mouse splenocytes [5]: 4.49 nM
Fold change of IFNγ at 10 µg/ml vs baseline, mouse splenocytes [5]: 5.93 fold
Kd [6]: 4.1 nM
Kd [7]: 2.34 nM
blocking ELISA signal normalized to isotype control (=1) [8]: 0.151 ratio to isotype control
blocking ELISA signal normalized to isotype control (=1) [9]: 0.157 ratio to isotype control
blocking ELISA signal normalized to isotype control (=1) [10]: 0.996 ratio to isotype control

B2: anti-IL18BP antibody BP-07 (antibody, human IgG1, V domains shown)
VH: EVQLQQSGPELVKPGASVKISCRASGFTITDYNMDWVRQSHGKSLEWIGNINLNNGGSIYNQKFKGKATLTIDKSSSTAYMELRSLTSEDTAVYYCARSDTTVVASRYYAMDYWGQGTSVTVSS
VL: DIVLTQSPASLAMSLGKRATISCRASESVSIIGTNLIHWYQQKPGQPPKLLIYHASNLETGVPVRFSGSGSRTDFTLTIDPVEEDDVAIYYCLQSRKIPPTFGGGTKLEIK
ELISA binding ratio (fold-change over background) [1]: 38.5 fold over background
ELISA binding ratio (fold-change over background) [2]: 39.3 fold over background
ELISA binding ratio (fold-change over background) [3]: 31.1 fold over background
EC50 of IFNγ release, human PBMC [4]: 1.66 nM
Fold change of IFNγ at 10 µg/ml vs baseline, human PBMC [4]: 16.6 fold
EC50 of IFNγ release, mouse splenocytes [5]: 8.16 nM
Fold change of IFNγ at 10 µg/ml vs baseline, mouse splenocytes [5]: 2.78 fold
Kd [6]: 2.7 nM
blocking ELISA signal normalized to isotype control (=1) [8]: 0.147 ratio to isotype control
blocking ELISA signal normalized to isotype control (=1) [9]: 0.156 ratio to isotype control
blocking ELISA signal normalized to isotype control (=1) [10]: 0.999 ratio to isotype control

B3: anti-IL18BP antibody BP-14 (antibody, human IgG1, V domains shown)
VH: QVQLVQSGAEVKKPGASVKVSCKASGYTFTGYYMHWVRQAPGQGLEWMGIINPRGGSTSHAQKFQGRVTMTRDTSTSTVYMELSSLRSEDTAVYYCARGLELHWFDPWGQGTLVTVSS
VL: DIQMTQSPSSLSASVGDRVTITCRASQNIRSWLAWYQQKPGKAPKLLIYAASSLQSGVPSRFSGSGSGTDFTLTISSLQPEDFATYYCQQANSFPYTFGQGTKLEIK
ELISA binding ratio (fold-change over background) [1]: 36.3 fold over background
ELISA binding ratio (fold-change over background) [2]: 45.1 fold over background
EC50 of IFNγ release, human PBMC [4]: 3.47 nM
Fold change of IFNγ at 10 µg/ml vs baseline, human PBMC [4]: 8.86 fold
EC50 of IFNγ release, mouse splenocytes [5]: 2.93 nM
Fold change of IFNγ at 10 µg/ml vs baseline, mouse splenocytes [5]: 3.49 fold
Kd [6]: 3.2 nM
blocking ELISA signal normalized to isotype control (=1) [8]: 0.069 ratio to isotype control
blocking ELISA signal normalized to isotype control (=1) [9]: 0.202 ratio to isotype control

B4: anti-IL18BP antibody BP-01 (antibody, human IgG1, V domains shown)
VH: QVQLQQSGPEVVRPGVSVKISCKGSGYTFTDFAMYWVKQSHAKSLEWIGVISTDNGDTSYNQKFKGKATMTVDKSSSTAYMELDRLTSEDSAIYYCARSRGPFDYWGQGTALTVSS
VL: DIVMTQSHKFKSTSVGDRVNITCKASQDVGTAVAWYQQKPGQSPKLLIYWASTRHIGVPDRFTGSGSGTDFTLTIRNVQSEDLADYFCQRYSSYPWTFGGGTKLEIK
ELISA binding ratio (fold-change over background) [1]: 40.7 fold over background
ELISA binding ratio (fold-change over background) [2]: 36.7 fold over background
ELISA binding ratio (fold-change over background) [3]: 47.4 fold over background
EC50 of IFNγ release, human PBMC [4]: 0.75 nM
Fold change of IFNγ at 10 µg/ml vs baseline, human PBMC [4]: 14.9 fold
EC50 of IFNγ release, mouse splenocytes [5]: 8.36 nM
Fold change of IFNγ at 10 µg/ml vs baseline, mouse splenocytes [5]: 1.65 fold
% of Max Gamma, human NK cells [11]: 52.2%
EC50 of IFNγ release, human NK cells [11]: 12.5 nM
Kd [7]: 12.1 nM
blocking ELISA signal normalized to isotype control (=1) [8]: 0.076 ratio to isotype control
blocking ELISA signal normalized to isotype control (=1) [9]: 0.316 ratio to isotype control
blocking ELISA signal normalized to isotype control (=1) [10]: 0.795 ratio to isotype control

B5: anti-IL18BP antibody BP-09 (antibody, human IgG1, V domains shown)
VH: QVQLQQSGAELVRPGASVTLSCKASGYRFTDYAMHWVKQTPVHGLQWIGIIDPETGDTAFNQKFKGKATLTADKSSSTAYMELSSLTSEDSAVYYCTRPRGAMDYWGQGTSVTVSS
VL: DIVMTQSHKFMSTSGGDRVSITCKASQDVGTAVAWYQQKPGISPKLLIYWASTRHTGVPDRFTGSGSGTDFTLAISNVQSEDLADYFCQQYSSHPYTFGGGTKLEIK
ELISA binding ratio (fold-change over background) [1]: 44.4 fold over background
ELISA binding ratio (fold-change over background) [2]: 32.7 fold over background
ELISA binding ratio (fold-change over background) [3]: 44.9 fold over background
EC50 of IFNγ release, human PBMC [4]: 1.41 nM
Fold change of IFNγ at 10 µg/ml vs baseline, human PBMC [4]: 15.4 fold
EC50 of IFNγ release, mouse splenocytes [5]: 426 nM
Fold change of IFNγ at 10 µg/ml vs baseline, mouse splenocytes [5]: 2.88 fold
% of Max Gamma, human NK cells [11]: 46.6%
EC50 of IFNγ release, human NK cells [11]: 51.7 nM
Kd [6]: 2.01 nM
Kd [7]: 1.4 nM
blocking ELISA signal normalized to isotype control (=1) [10]: 0.315 ratio to isotype control

B6: anti-IL18BP antibody BP-12 (antibody, human IgG1, V domains shown)
VH: EVQLQQSGPELVKPGASVKMSCKTSGYTFTEYTMHWVKQSHGKSLEWIGGVNPNNGGTTYNQKFRDKATLTVDKSSSTTYMEVRTLTSDDSAVYYCAPLWRVFDYWGQGTTLTVSS
VL: DIVMTQSHKFMSSSVGDRVSITCKASQDVGTAVAWYQQKPGQSPKLLIYWASTRHTGVPDRFTGSGSGTDFTLTISNVQSEDLADYFCHQFSRYPLTFGAGTKLELK
ELISA binding ratio (fold-change over background) [1]: 43.2 fold over background
ELISA binding ratio (fold-change over background) [2]: 34.2 fold over background
ELISA binding ratio (fold-change over background) [3]: 44 fold over background
EC50 of IFNγ release, human PBMC [4]: 6.09 nM
Fold change of IFNγ at 10 µg/ml vs baseline, human PBMC [4]: 10.3 fold
EC50 of IFNγ release, mouse splenocytes [5]: 15.7 nM
Fold change of IFNγ at 10 µg/ml vs baseline, mouse splenocytes [5]: 1.88 fold
% of Max Gamma, human NK cells [11]: 76.5%
EC50 of IFNγ release, human NK cells [11]: 70 nM
Kd [6]: 7.6 nM
Kd [7]: 0.5 nM
blocking ELISA signal normalized to isotype control (=1) [8]: 0.117 ratio to isotype control
blocking ELISA signal normalized to isotype control (=1) [9]: 0.351 ratio to isotype control
blocking ELISA signal normalized to isotype control (=1) [10]: 0.36 ratio to isotype control

B7: anti-IL18BP antibody BP-10 (antibody, human IgG1, V domains shown)
VH: QVQLQQPGAERVEPGASVRLSCKTSGYTFTNYWMHWVKQRPGQGLEWIGMIHPESGSTNNNEKFKSKATLTVDKSSSTAYMQLSSLTSEDSAVYYCARWDRGYFDYWGQGTTLTVSS
VL: DIVMTQSHKFMSTSVGDRVSITCKASQDVRSTVGWYQQRPGQSPKLLIYWTSTRHTGVPDRFTGSGSGTDYTLTISSVQAEDLALYYCQQHYSTPYTFGGGTTLEIK
ELISA binding ratio (fold-change over background) [1]: 42.1 fold over background
ELISA binding ratio (fold-change over background) [2]: 40.8 fold over background
ELISA binding ratio (fold-change over background) [3]: 48.1 fold over background
EC50 of IFNγ release, human PBMC [4]: 2.05 nM
Fold change of IFNγ at 10 µg/ml vs baseline, human PBMC [4]: 15.5 fold
EC50 of IFNγ release, mouse splenocytes [5]: 538 nM
Fold change of IFNγ at 10 µg/ml vs baseline, mouse splenocytes [5]: 2.85 fold
% of Max Gamma, human NK cells [11]: 55.2%
EC50 of IFNγ release, human NK cells [11]: 6 nM
Kd [6]: 1 nM
Kd [7]: 0.02 nM
blocking ELISA signal normalized to isotype control (=1) [8]: 0.067 ratio to isotype control
blocking ELISA signal normalized to isotype control (=1) [9]: 0.326 ratio to isotype control
blocking ELISA signal normalized to isotype control (=1) [10]: 0.28 ratio to isotype control
